Biological target: T1, glutathione S transferase (GST)-SQUAMOSA PROMOTER BINDING PROTEIN-LIKE9 (SPL9) (Arabidopsis thaliana, UniProt Q700W2 1-375)
T1 construct: SPL9, Arabidopsis thaliana; full-length cDNA without stop codon recombined into pDEST15 (N-GST); also called GST-SPL9; source: Escherichia coli, purified; not shown: GST, N-terminal, kept
T1 sequence (looked up): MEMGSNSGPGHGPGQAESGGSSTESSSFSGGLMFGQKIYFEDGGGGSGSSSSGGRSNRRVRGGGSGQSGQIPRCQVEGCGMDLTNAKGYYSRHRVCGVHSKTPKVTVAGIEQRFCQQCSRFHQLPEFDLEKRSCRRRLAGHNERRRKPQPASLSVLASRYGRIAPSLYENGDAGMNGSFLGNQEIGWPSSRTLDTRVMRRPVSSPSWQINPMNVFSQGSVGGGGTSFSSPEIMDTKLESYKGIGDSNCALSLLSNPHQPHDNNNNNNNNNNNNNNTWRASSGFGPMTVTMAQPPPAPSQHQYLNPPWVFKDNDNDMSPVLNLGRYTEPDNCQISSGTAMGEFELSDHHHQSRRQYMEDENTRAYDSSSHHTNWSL
Assay: pull-down; glutathione beads with 1 µg GST-SPL9 incubated with 1 µg MBP or MBP-BZR1; 20 mM Tris-HCl pH 7.5, 100 mM NaCl, 1 mM EDTA, 4 °C, 1 h; washed 10 times with 300 mM NaCl, 0.5% TritonX-100; anti-MBP and anti-GST blots
Conditions: both partners purified

- binding result: binds
B1: Maltose binding protein (MBP)-BRASSINAZOLE RESISTANT 1 (BZR1) (natural protein, Arabidopsis thaliana, UniProt Q8S307 1-336, looked up)
chain: MTSDGATSTSAAAAAAAAAAARRKPSWRERENNRRRERRRRAVAAKIYTGLRAQGDYNLPKHCDNNEVLKALCVEAGWVVEEDGTTYRKGCKPLPGEIAGTSSRVTPYSSQNQSPLSSAFQSPIPSYQVSPSSSSFPSPSRGEPNNNMSSTFFPFLRNGGIPSSLPSLRISNSCPVTPPVSSPTSKNPKPLPNWESIAKQSMAIAKQSMASFNYPFYAVSAPASPTHRHQFHTPATIPECDESDSSTVDSGHWISFQKFAQQQPFSASMVPTSPTFNLVKPAPQQMSPNTAAFQEIGQSSEFKFENSQVKPWEGERIHDVGMEDLELTLGNGKARG
notes: BZR1, Arabidopsis thaliana; also called MBP-BZR1; MBP-fused BZR1; source: Escherichia coli, purified
